Laboratory results as given in US20210085770A1 (KORANEX CAPITAL, published 2021).

Biological target: T1, recombinant SARS-CoV-2 S1 protein expressed from insect (Sf9) cells (S1-His, SinoBiological, Cat. No. … (SARS-CoV-2, UniProt P0DTC2 16-685, glycosylated by insect cells))
T1 construct: also called 51-His (as misprinted)
Assay: ELISA, coated insect-cell S1-His, HRP-conjugated lectin 10 ug/mL

Row | Binder | mean fold increase of OD450
1 | Maackia amurensis lectin (MAA) (other) SDELSFTINNFVPNEADLLFQGEASVSSTGVLQLTRVENGQPQKYSVGRALYAAPVRIWDNTTGSVASFSTSFTFVVKAPNPDITSDGLAFYLAPPDSQIPSGSVSKYLGLFNNSNSDSSNQIVAVELDTYFAHSYDPWDPNYRHIGIDVNGIESIKTVQWDWINGGVAFATITYLAPNKTLIASLVYPSNQTTFSVAASVDLKEILPEWVRVGFSAATGYPTEVETHDVLSWSFTSTLEANCDAATEN | 4.3 fold
2 | Vicia villosa lectin (VVA) (other) SESTSFSFTNFNPNQENLILQEDALVNSKGTLELTKNGKPVPESLGRNCTTLASFTTSFSFVMSAPNSLDVADGLAFFLAPPDTQPQKRGGFLGLFKDRKHDISYQSVAVEFDTYSNVWDPNTTHIGIDTNTIESKKITPFDMVYGEKILFASLVFPVSQDILPEYVRVGFSATTGLNEGVVETH | 22.5 fold
